Laboratory results reported in paper PMC5382266 (Nature Communications, 2017).

B2: refolded IL-7Rα ectodomain (domain or fragment, human, UniProt P16871-1 21-239, looked up)
chain: ESGYAQNGDLEDAELDDYSFSCYSQLEVNGSQHSLTCAFEDPDVNITNLEFEICGALVEVKCLNFRKLQEIYFIETKKFLLIGKSNICVKVGEKSLTCKKIDLTTIVKPEAPFDLSVVYREGANDFVVTFNTSHLQKKYVKVLMHDVAYRQEKDENKWTHVNLSSTKLTLLQRKLQPAAMYEIKVRSIPDHYFKGFWSEWSPSYYFRTPEINNSSGEMD
notes: extracellular fragment of human IL-7Rα, NP_002176.2, residues 21-239; His tag removed with thrombin; also called IL-7Rα ectodomain (E. coli); not shown: His6, N-terminal, cleaved
B3: TSLPR^N47Q (domain or fragment, human, UniProt Q9HC73-1 23-221, looked up)
chain: QGGAAEGVQIQIIYFNLETVQVTWQASKYSRTNLTFHYRFNGDEAYDQCTNYLLQEGHTSGCLLDAEQRDDILYFSIRNGTHPVFTASRWMVYYLKPSSPKHVRFSWHQDAVTVTCSDLSYGDLLYEVQYRSPFDTEWQSKQENTCNVTIEGLDAEKCYSFWVRVKAMEDVYGPDTYPSDWSEVTCWQRGEIRDACAET
notes: signal peptide in the construct; extracellular fragment of human TSLPR, NP_071431.2, residues 1-221, N-glycosylation mutant N47Q; also called EndoH-treated TSLPR^N47Q

Assays:
Details in all cases: both partners purified
TSLPR^N47Q = molecular target: B3; test: SEC-MALS; Superdex 200 Increase 10/300 GL, HBS pH 7.4, 0.5 ml/min, 25 °C; glycan-minimized ternary complex
[1] = molecular target: T1, binary TSLP^Δ127–131:TSLPR^N47Q complex (human, UniProt Q969D9-1 29-159; Q9HC73-1 23-221, Δ127–131 | N47Q); test: as above
T1 construct: as the chain of m8; signal peptide in the construct; extracellular fragment of human TSLPR, NP_071431.2, residues 1-221, N47Q; as the chain of m9; also called TSLP:TSLPR^N47Q complex; not shown: His6, N-terminal, cleaved; copies: 1 + 1

[2] = molecular target: B2; test: crystal structure; TSLP^Δ127–131:TSLPR^N47Q:IL-7Rα complex; 0.02 M citric acid, 0.08 M BIS-TRIS propane pH 8.8, 16% PEG 3,350, 293 K; 2.55 Å

B1: TSLP^Δ127–131 (ligand, human, UniProt Q969D9-1 29-159, looked up)
chain: YDFTNCDFEKIKAAYLSTISKDLITYMSGTKSTEFNNTVSCSNRPHCLTEIQSLTFNPTAGCASLAKEMFAMKTKAALAIWCPGYSETQINATQAMKKVTTNKCLEQVSQLQGLWRRFNRPLLKQQ
notes: His tag removed with thrombin; also called non-glycosylated human TSLP lacking a basic cassette; not shown: His6, N-terminal, cleaved
TSLPR^N47Q
  stoichiometry N: 1

## B2
[1]
  stoichiometry N: 1

## B3
[2]
  binding result: binds
